{
  "source": "paper PMC5725467",
  "about": "“Elongated Hypocotyl 5-Homolog (HYH) Negatively Regulates Expression of the Ambient Temperature-Responsive MicroRNA Gene MIR169”",
  "binders": {"B1": {"name": "miR169a NC1 (dsDNA)", "DNA 1": "ATCTTCTGTTTAACAACATATG", "DNA 2": "CATATGTTGTTAAACAGAAGAT"}, "B2": {"name": "miR169a G-box-like (G) (dsDNA)", "DNA 1": "TGTACGGCCACGCAAAAGTGACCTAC", "DNA 2": "GTAGGTCACTTTTGCGTGGCCGTACA"}, "B3": {"name": "miR169a G-box-like, unlabeled competitor (dsDNA)", "DNA 1": "TGTACGGCCACGCAAAAGTGACCTAC", "DNA 2": "GTAGGTCACTTTTGCGTGGCCGTACA"}},
  "key": {"[1]": {"target": "T1, HYH.2-His (HYH splice isoform 2) (Arabidopsis thaliana, UniProt Q8W191 1-149)", "T1 sequence": "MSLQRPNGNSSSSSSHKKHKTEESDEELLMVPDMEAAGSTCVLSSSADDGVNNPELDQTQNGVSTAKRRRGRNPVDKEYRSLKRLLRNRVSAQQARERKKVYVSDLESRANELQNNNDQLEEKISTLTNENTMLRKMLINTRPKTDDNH", "assay": "EMSA; 100 ng protein; EMSA: LightShift Chemiluminescent EMSA Kit (manufacturer's instructions), 100 ng HYH.2-His, room temperature 30 min, 8% native polyacrylamide gel; buffer, salt", "settings": "protein: recombinant; tags: His (pET28a+); chain copies: 2; label: 5'-biotin; blunt"}, "[2]": {"target": "T1, HYH.2-His (HYH splice isoform 2)", "assay": "competition; 100x, 400x, 1600x molar excess over labeled N1; gradual decrease of shift; EMSA: LightShift Chemiluminescent EMSA Kit (manufacturer's instructions), 100 ng HYH.2-His, room temperature 30 min, 8% native polyacrylamide gel; buffer, salt", "settings": "protein: recombinant; tags: His (pET28a+); chain copies: 2; label: none; blunt"}},
  "data": [
    {"binder": "B1", "values": [
      {"measurement": "binding result", "setting": "[1]", "value": "no binding"}
    ]},
    {"binder": "B2", "values": [
      {"measurement": "binding result", "setting": "[1]", "value": "binds"}
    ]},
    {"binder": "B3", "values": [
      {"measurement": "binding result", "setting": "[2]", "value": "binds"}
    ]}
  ]
}
